# The supplement of paper PMC9732359
# ± gives the uncertainty stated by the source.
# Assay: protein stability index of a GFP-peptide fusion (yeast GPS) (PSI 1-4); higher = more stable; sorted into four equal gates, so the index is relative within each strain
# How it was run: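 Mid-log yeast cultures in leucine-free medium, carrying a pooled plasmid library, were sorted into four equal gates by their GFP/Cherry fluorescence ratio. Each plasmid expressed Cherry along with GFP fused upstream of a tiled 17-residue yeast protein peptide. Plasmids recovered from each gate were PCR-amplified and Illumina-sequenced, with reads assigned to strains by barcodes. The protein stability index was obtained by summing each gate's read frequency weighted by its gate number.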
Sequence,protein stability index (doa10∆),protein stability index (pdr5∆),protein stability index (san1∆),protein stability index (ubr1∆)
LISGKAGVLNGTLEYGT [RET1],2.83 ± 0.056,3.03 ± 0.062,3.02 ± 0.063,2.99 ± 0.059
SPTENGVFDPASYAKYL [RPL22A],2.98 ± 0.051,3.19 ± 0.061,3.08 ± 0.045,2.88 ± 0.043
VLVVRGSKKGQEGKISS [RPL26A],3.54 ± 0.085,3.19 ± 0.099,3.06 ± 0.068,3.44 ± 0.084
PEETPLEELAETFQDTF [FAS2],3.11 ± 0.056,2.96 ± 0.062,3.12 ± 0.048,3.32 ± 0.059
DKLTSIQDTLRTGSQSP [MED7],2.7 ± 0.042,2.82 ± 0.045,2.69 ± 0.032,2.89 ± 0.033
DARGVIGVIAGGGRVDK [RPL2A],3.18 ± 0.093,3.11 ± 0.11,3.06 ± 0.11,2.86 ± 0.071
SKRRITEELSITGEKLD [SMC1],2.17 ± 0.08,2.22 ± 0.072,2.18 ± 0.1,2.01 ± 0.078
GVLKPDITFFGEALPNK [SIR2],3.34 ± 0.08,3.19 ± 0.083,3.16 ± 0.091,3.35 ± 0.085
ADKSLPSSMATLLKNLR [YJR042W/NUP85],2.97 ± 0.081,2.81 ± 0.077,2.87 ± 0.054,2.86 ± 0.057
DVYSPEKGSWEQLSPQD [BRR2],3.15 ± 0.15,,2.47 ± 0.24,3.34 ± 0.25
SSFKKNLLKFITSNHKS [RPN3],1.46 ± 0.053,1.5 ± 0.049,1.3 ± 0.064,1.83 ± 0.092
RFEKAVKHVFGKTIVVK [SMC3],2.76 ± 0.21,3.58 ± 0.2,,3.5 ± 0.16
KQHAVLMLGSVNLPGGI [RRP4],2 ± 0.049,2.17 ± 0.058,1.94 ± 0.081,1.66 ± 0.037
FIVVPDLLKNAPLFKKN [SMD3],2.07 ± 0.053,1.57 ± 0.042,1.66 ± 0.11,1.32 ± 0.035
NAKKRVFKTHSYRGVDL [RPS15],2.93 ± 0.053,2.15 ± 0.033,3.16 ± 0.039,3.32 ± 0.047
KSMSILNSFVNDIFERI [HTB1],2.73 ± 0.1,3.18 ± 0.13,2.47 ± 0.2,2.94 ± 0.062
KAERVEDQKVVDKALIA [RPL6A],3.25 ± 0.057,3.5 ± 0.06,3.4 ± 0.044,3.5 ± 0.05
NLLCYYNLRSLNLINAK [RPN3],1.48 ± 0.049,1.71 ± 0.06,1.36 ± 0.12,1.25 ± 0.041
KSGRINGFHGRLGDLGV [SMC4],3.41 ± 0.11,3.43 ± 0.093,3.13 ± 0.1,3.31 ± 0.045
TYDENDDFFKELAKEAK [ESC2],3.01 ± 0.11,2.83 ± 0.08,2.65 ± 0.073,3.08 ± 0.075
HRLKLCKSLISENEDTK [CSE2],2.91 ± 0.17,3.24 ± 0.27,2.42 ± 0.2,
VTNALDNIDEKVVKAIR [NUT1],3.04 ± 0.16,2.37 ± 0.14,3.07 ± 0.083,1.61 ± 0.048
DLNPLKTLNLFKQIKSA [RPO31],2 ± 0.16,1.37 ± 0.033,2.62 ± 0.11,2.15 ± 0.071
VKWVHMIIDEGHRMKNA [SNF2],1.81 ± 0.12,1.91 ± 0.075,1.77 ± 0.13,3.11 ± 0.2
VVWYQRLTMGNVFTPEI [RRI2],2.03 ± 0.074,2.3 ± 0.058,2.27 ± 0.12,2.45 ± 0.073
ELEGSFNKSAELSRIEN [YCS4],2.58 ± 0.13,3.22 ± 0.23,3.12 ± 0.087,3.11 ± 0.12

Sequence,protein stability index (doa10∆),protein stability index (pdr5∆),protein stability index (san1∆),protein stability index (ubr1∆)
TNLISKISLLRPSFQNN [SWP82],2.52 ± 0.05,2.69 ± 0.05,2.53 ± 0.071,2.72 ± 0.064
LKEILNVAKNMKTPSLT [RPO21],3.33 ± 0.12,3.06 ± 0.11,3.1 ± 0.072,3.47 ± 0.12
NVETYEQILQWVTEVLG [BRR2],1.83 ± 0.065,1.75 ± 0.06,1.77 ± 0.089,2 ± 0.082
VQVSKAGGLPMDALTLM [RRP45],1.28 ± 0.12,1.23 ± 0.18,1.1 ± 0.2,1.08 ± 0.14
PIPSSETKADGILLETI [RRP6],2.86 ± 0.1,2.36 ± 0.065,2.12 ± 0.1,2.53 ± 0.052
VAFLDNDLGKFIPNKQL [RPN7],3.34 ± 0.17,3.02 ± 0.17,2.83 ± 0.26,2.88 ± 0.095
DIGSDPTLPRSDRECPK [RPB9],2.7 ± 0.069,2.94 ± 0.078,2.85 ± 0.076,3.14 ± 0.082
STSYHLNSTLESLYDLI [MED6],2.86 ± 0.12,2.62 ± 0.094,3 ± 0.084,2.51 ± 0.12
TYSFIDNDRFNVVGKLI [YML103C/NUP188],2.34 ± 0.058,2.27 ± 0.06,2.07 ± 0.072,2.16 ± 0.04
LVAKLKKVKSASKKSGG [SMC4],2.4 ± 0.074,2.62 ± 0.085,2.13 ± 0.12,2.45 ± 0.052
DTIMENPEPNKKNIQKA [IRR1],2.36 ± 0.25,2.84 ± 0.13,3.18 ± 0.2,2.99 ± 0.11
KFILSGFIFTSMILEAI [RRI2],1.58 ± 0.06,1.2 ± 0.035,1.17 ± 0.11,1.11 ± 0.048
KNNSSIRNVIMSASNAN [SRB8],1.59 ± 0.037,2.13 ± 0.053,1.88 ± 0.095,1.75 ± 0.044
KIVDKDGIRQVDDFQAQ [PRE1],2.9 ± 0.14,2.9 ± 0.11,,
QMDQQLQYTALTGSPNN [ARP7],2.91 ± 0.11,3.36 ± 0.096,3.33 ± 0.071,3.13 ± 0.063
SAVIIDEFKDITKEVTQ [YIL149C/MLP2],2.76 ± 0.088,2.89 ± 0.059,2.39 ± 0.06,2.8 ± 0.068
VIDLEKIKFDESSKLMT [BRR2],1.27 ± 0.1,1.43 ± 0.086,1.18 ± 0.25,1.32 ± 0.053
TGANFDDVERGVSRQIA [REC8],3.49 ± 0.11,3.63 ± 0.17,3.32 ± 0.24,3.58 ± 0.12
ILADEMGLGKTLQTISF [ISW2],3.09 ± 0.07,3.06 ± 0.066,2.91 ± 0.057,2.77 ± 0.061
LPTTVVSNPGDNPPPAD [MED2],3.02 ± 0.046,2.95 ± 0.052,3.04 ± 0.051,3.11 ± 0.037
RAHGRINKYESSPSHIE [RPL17A],2.9 ± 0.07,3.4 ± 0.077,2.99 ± 0.08,3.17 ± 0.061
SPSERIEPLEINIQSFK [BRR2],2.51 ± 0.064,2.53 ± 0.046,2.55 ± 0.047,1.97 ± 0.032
ESTTEATGNESQDATKV [YLR335W/NUP2],3.04 ± 0.071,3.23 ± 0.081,3.12 ± 0.11,3.21 ± 0.075
VSSSKNKKSEENEMIKP [SWP82],2.72 ± 0.25,3.34 ± 0.14,3.18 ± 0.14,3.49 ± 0.28
SKNELKKAFTSYDRTLL [RPS16A],2.76 ± 0.067,3.14 ± 0.057,3.12 ± 0.07,2.91 ± 0.077
NSEISNLPKDKSGIPEF [SSN2],2.98 ± 0.087,3 ± 0.11,2.9 ± 0.072,3.33 ± 0.076
